Test system: Saccharomyces cerevisiae
Assay: transcriptional activation domain activity (GFP:mCherry ratio, weighted mean of sorted bins, harmonized to initial dataset scale) (arbitrary fluorescence ratio units); higher = stronger transcriptional activation
Conditions: beta-estradiol 1 µM; induction time 4 h
Summary of the method: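 Each value is an activation activity: the read-weighted mean of bin median fluorescence, averaged across barcodes, then mapped linearly to the initial dataset scale. The tiles, fused to an estradiol-inducible synthetic transcription factor, sat at the yeast URA3 locus in GFP-reporter diploids. Cells spent 4 hours at 30 °C in SC with 1 uM beta-estradiol before sorting into 8 GFP:mCherry bins, and tiles below 50 reads were removed.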

Sequence	transcriptional activation domain activity
SFHAFFFLYLPCCLFFYFCIVLVLVLVGYWCLVFFFIVFGSFPPPLLSKYLHL	46200
YFYGLERRHVTCSQLAYYLCDKALTPMFCGGRVGNDCFDPWGRLLTYWCFLPL	77300
QCIFVLLVLLMRRHLAKMHLCLKQEIDWRELDDDRDTVTWVVAAVWQRFIDLK	61000
STATESGLAARSKDQIFCIPVPGQPWVDVRLRTLSESINSLLLLATLIKRCPV	59300
VISDSEDEKPPAKKAKTEEKAEKEEAKEDPEAKAKAVKEKEEAALKLATTRIL	40700
MYHAKFLYLLLGFLVYFLSSQTSINVYYISLNPFLFLAHPTILLIPLFPFRYT	39700
SKGAKKDAGPRGAVRRAKKKGGVEPEKKKREKDGGSREKSRSSSKKEKGGFER	15200
DFFLGERDLLQETVSEEWLQFFDDGDLDQILDFLIFFKNPESLHPPSSLVDFI	158000
RWGLGRWWVPFQLFVIFWDLDNWPVFGLRPWVFEFMEGPLEYVLSFLVLFTAK	67500
LASIVMFRTFHEGSTWTGLTRTRMFWYVFLFSFFWYWVPGYIMPILSFFSILC	69200
AVKAEPESTAPSLVKEENTEDTKPAPSSTAPAEPSSGGMFRKRKAPAAGAGSR	39900
EKPAEAAPAEAIPAEPEAVEEEKPKSPAPTPAAAPAKGTTPSPEKENVAPAKA	24800
EPAEEEEEEDDDDEDDPEVRRKEELRARMAKMSAGMGGMGGMMNPFAAPVAPG	62200
EMGTLAALLWQPEIRDLTTYLRDIRVAVANVLDVFAMIEPSRLIAKIKIHLLA	43100
NLCMQLLVAPTRDEIDAAHRRKIWLDVGIQSWRNLTNIMPSRMWIWIILLLSS	34900
AKILRELFLLYQPPEELIPSLQQWYLLVQACSGIVTSSDFGNTLFGIARLCLP	30500
LNVQLVYLIHSVLSIVIDFTFKRVEGDMDEWVVSGFSDRFERRITFARLYCNK	49000
CFLVLSCRWLLVLPALTYLATSVLYTYDITITVTGQTRSVRLPSSIACILNVA	42200
KTTGPDARISHTSVQRFASYLGLRVALDRLRLQLAAATTIRHFISRLSRVLVF	50600
RLPNNANSTTGLNDNDYNLDDTNNDNTNSMQSILEDFVSSEEALKFMPDAGRD	30400
MHYLGLFRALDYNASSLIGVVNIDYTTVIYLIIEELIILLLTLAKRNVATQYA	61800

Sequence	transcriptional activation domain activity
CFICYGYIVIRWWIEADRDPELIHQALVMIWYPIAYFVEIFPQSMVRVLNMHA	52600
RYWTFMTFLSIFLSIFACFLWIAVYSLFPTFFFDWELIILYSTMNFWATVVVV	51700
FAGIYSLVHFRKVWSSDHFILRKFMFMIEDLYQLYNLFFSWVAMGNFYLIFYI	67800
MGTLYPLVLPWFTGSYFLDIGIDFVFQKDTSYLGYILHTLHAPFLLSCLFLVL	65000
TGGSLFGANKPAFGNAASTSGPFGGGASSGFGGNTGAFGSPASTALGATTGEC	51300
LLLCGEICVACIVLYIHIVFFFGFFFFFLLGMIGLCLTFSNQLILFVYFLYFL	43200
PPGRVAPDAESVGYVLHSRLLTLLFPLFFFSLPLYNSSLLAGWAGWGLMMITF	62900
LMLQRLDIIRQILYLYRDPHLQIVLNRYYKSFNRRKIFLMNPVINALSNMPYF	47500
AAAGAREVKHPAAKKQKKIEGGSETKDEEEKSSSKKRQKSESKSKSKSKSKSK	28300
IVKGTDAQQLAQIVVANLFCAILMRQDYVINAFFNFFCSVPTSWPLAIRRVCA	53100
MIVVVLCLPSALTHLGCLFYHDPSSPFALVTFSVSLIIILPNLGVILFGFFNI	48600
ITMCSVTSVGYLGIVRWLVICLGFQPYKLRCVTLVYLTHVMTFFCIIILGIFN	68800
KCCVHVHQVYPYFFVEYFGKMRLRSGQLSALTFGAELQYTRVLIHVGVHFYGF	47400
EDEEEAPAKVIKAKRAPPKRKAPAKDDDDEESAEEKPKKKKAPSKKAAAKAQA	38200
LTLFVHFVKLSGILGEVLRRIYSPKAKINGYRTKTMSQTVWSLQRMLNEWLTN	53300
KSVLERILVRGAMGSERHMKHELKVFYAMRGKLSWFIKWVHVVLRWVFAKSVL	48000
MELSFFSVSSDGDLFFLLLFLIRGVLEKYFFDWYFDLPLWVFVCFFLFVFLTL	54600
DSAMRAIYSFRNSYIAFILFNGSIYYYVARFFGFYHKVLDSPIVGFRWVDLHL	58300
KASKSKKRKHHHHKSAVSSPEASDADTASQSSKRSKKSKRRHADADARAAANG	36700
VAAFAVFCSIEARGSLYVFSVDAVKRVGRRIKHFWHGVWTVLRTAVLLCTCGR	77400
MLLNVFFFFPSSILGSFLYTDLFYFGFFSLIMLFPFKLPCIQPTFFFFTPSFI	44500

Sequence	transcriptional activation domain activity
LLLFIHSLIHGTMLLFWRWPMLSILQVPMHPFLLLVCFNLFSQSVPPVLVSAA	59500
TSWKNEDQALVFHLRSRVSAAIMKLECHRDRRIDLLITFREAQRFLLELIGWV	59400
APSIRYRLPFDSLLFVFCGTLLCTLIFLREALIPHFPCWVLLWGAYILLPLCF	15900
RRVTGKVLLLVWKLGVRPRLNVFEGVVHRLAVAGCFSQIPPAVALCRRILNRI	59000
EYMGKETGSHHLGREGEEKTYAVRRDYESRNRVALTPERNAVEIVRVRTQAAP	19700
HFSLLWPPHCSLWCTLFFLLIGHFVFILCLCYSVFFSFPSFLLIVSCFLLCFP	37800
MLCRLCFFVFTRAVLLYLIGLFFNLFRLCLSLRFNIFVSFVFLDFCMSFPSTL	40200
MGPWICQTQPTSYLILSGLVHSFLKSSQGFISYIFSTLVHMTFLVFLYIHLFR	58800
NLNFMPINNNYNNSGSNINNNDNVKLPSNFKNYYDPPMSSLDISMDVPDIFGS	94300
PLFRHQDSLLIVASNIGLVGMISILVYCTYAFSLQSVVKFYFIPYVLVNHWIV	45200
MMSDSGQDEKTLPQADKNGTSQVAVPLEATEASEQALLRRLLRKTDLLVMPGL	24200
RFVTNILVILSDRVNMEQLLKRIRKKAADFYHFTDLWQWCCAQFVKLLRKVYN	55100
NKWLNVIQKFLKELDGRDKLMKTIQYFIKILLHYKMARAKHWSSLTSHLSMTR	66400
MPTDHASDTPSLGESSNQGAHKGYGRACLQCRQKKRKCRPSETKPDLCLLCEK	40000
MSSWVYKYQLMFVFVSKVESGGRIWNVIINRLLICVLLMQMLMILTMGLQYRF	49000
KAGCGYILGHINIFQPINWIFVVSAKVFPVDYVLFLLLVFFLFSASVVGVATV	32300
GDESRIDTKFFFGCVGLSNVVFIWPVLVLFHYLGIERFGLPPSSRIWWLLLLN	50100
GASVDIHVTYQSSVKEGDEVEIEGIAEKVGGSLAFTKVNIFRVEDGERGRPVA	36800
YAILYFLFFGAWGLRIMSHLPSWWYNCPQFWIDYPHWQMTPELKCYYLMQASY	73600
MAMGLMCKACLLTPQHFLPLLWPSYPRPFFFFFFFYYSYCCSCCDCISIFGLN	43400
TAANGKKSKGNKGGNAAGANANANAKANGNTKNGNGNSRNGNNKRMRALGSAM	25700

Sequence	transcriptional activation domain activity
RLWQLILCKLEHFHLGFFLLGSVNNIYFTYKILNDMFDIVLLGQDQQDNDDEL	60000
LLFQSGVLRGYGGLLGFWIYLLLSSSFLLHLFYCCYIVLYLFVFVSWLLACLL	51700
RNVIRGCRKPLSSRYVFLMSVTRLVIPLYFYVCPYNIIALKPSKWIWLLVLYV	62600
QTPTDPESYWSDNRCKHSDCQELSPFASVFDLIDHYDHTHAFIPETLVKYSYI	17600
YLMHGLVLFSIVPSVFIPIYEYHQLSYIAASMICAFIYIIFAVICGWLFWWTV	40600
AQLLRLAHIHQIRHMVHIFSPVWYRPAVIYCFIAICFIVVLNIQALLSIVWSS	45900
MQGEETIASKTNKPRQRRAHTRSRTGCSECRNRRVRCDEQKPQCKNCINSQRI	24100
MMHSLHPLSISILSLDFNLSYLLFVLPCHRIICSFFRLLAVLFHFFLFIGFYL	60300
GCEPKNQRIFYFHVLILQRSLMARLERHEEGLSTKEWRLVLGDHYWISHWKKV	51400
REDRQRKQQREKERAAREAEGTQRRRRKRRRTNGGAKTEEGEEENDGEEEEDG	52800
TATKPTESKPVETKTDAAAAGKSTTPANGSGSASATKPAETASTTEKKKKNRL	30400
AAFSGEGDPWPGVAREIDENGENVGLAASRPAPAFLRVLTAVRVRVRIAFAFV	54500
STGLKPQDPSSDGLRKLALLNILLSGEEDVVSTIPAQRLVFLVKHLLECLKSD	24800
RRTRYLVLCVALELISSILYLYLISIFGSLHLATFPLRLGFFFLLLSRLLCTM	35100
AAGKAGKGGKGAGKAGKGAGKGKGGKRGGKGGKGAKAAGKGAAKAASQAAAAS	37100
LQLAFYFGFIMVFVCSYMKRNTLVLLLFLLNNLCMVFRFYASDLLYQYWLIPV	61800
GPLRVAQRPRERPGLRAARVPAEGQEAEGPGRLGRARVGGGVPRGRAAARVVV	34200
NITKVAERGERLDSLQDKTDNLAVSAQGFRRGANRVRKVSSVVPFIQHSAHKL	22000
KHYRRRLLQRDILKRKRWSIGLKTLVLLRDLGVFVHHHTVVKALQMQFIVLFG	57200
ARWSVAKVFYILGRYYGLFYMIVQLYISLTLDLALNVQRLLLVLDLVWRCCLY	54000

From the supplement of paper PMC12636428
